Test results from publication PMC11588662 (2024).

Molecular target: CD33 Db-FM (fluorescein-maleimide-labelled anti-CD33 diabody, clone SGN-33) (fluorescein-5-maleimide on the engineered C-terminal cysteine (added after the hexahistidine tag))
Assay: SPR

- Kd: 7 nM
B1: extracellular domain of CD33, His-tagged protein (domain or fragment)
chain: DPNFWLQVQESVTVQEGLCVLVPCTFFHPIPYYDKNSPVHGYWFREGAIISRDSPVATNKLDQEVQEETQGRFRLLGDPSRNNCSLSIVDARRRDNGSYFFRMERGSTKYSYKSPQLSVHVTDLTHRPKILIPGTLEPGHSKNLTCSVSWACEQGTPPIFSWLSAAPTSLGPRTTHSSVLIITPRPQDHGTNLTCQVKFAGAGVTTERTIQLNVTYVPQNPTTGIFPGDGSGKQETRAGVVH
